Assay [1] deals with T1, HLA-A*0201 (recombinant HLA-A*0201 heavy chain with human beta-2 microglobulin) (human). As to the kind of experiment: EpI ELISA: refolding of recombinant HLA-A*0201 with b2m and graded peptide.
Assay [2] concerns the target T1, HLA-A*0201 (recombinant HLA-A*0201 …). As to the kind of experiment: ELISA-based refolding assay: recombinant HLA-A*0201, b2m and graded peptide. A general note: ELISA stands for enzyme-linked immunosorbent assay.

Ends that are not written are not given here.

On to KIFDEILVNA (also called IMA-TOP-001) [TOP-001], for which, in assay [1], the binding result is reported as “binds”.

As for KLGDFGLATVV [DCA-001], the binding result in assay [2] was “binds”.

With ALFVRLLALA (also called IMA-TGFBI-001) [TGFBI-001], the “fold lower KD compared with the majority of peptides” value in assay [1] was 100 fold.

As to KLMDLDVEQL (also called IMA-PCN-001) [PCN-001], the binding result in assay [1] is given as “binds”.

With ILAPVILYI (also called IMA-NOX-001) [NOX-001], the binding result in assay [1] was “binds”.

In the case of ALSNLEVTL (also: acetate salt, also called IMA-C20-001) [C20-001], the binding result in assay [1] is given as “binds”.

For the molecule KLTDIQIEL [JAK-001], the binding result in assay [2] is recorded as “binds”.
